The values below come from PMC9002140 (Computational and Structural Biotechnology Journal, 2022).

Experiment [1] addresses T1, thermolysin from B. thermoproteolyticus Rokko (Bacillus thermoproteolyticus Rokko, UniProt P00800 233-548).
T1 sequence (looked up): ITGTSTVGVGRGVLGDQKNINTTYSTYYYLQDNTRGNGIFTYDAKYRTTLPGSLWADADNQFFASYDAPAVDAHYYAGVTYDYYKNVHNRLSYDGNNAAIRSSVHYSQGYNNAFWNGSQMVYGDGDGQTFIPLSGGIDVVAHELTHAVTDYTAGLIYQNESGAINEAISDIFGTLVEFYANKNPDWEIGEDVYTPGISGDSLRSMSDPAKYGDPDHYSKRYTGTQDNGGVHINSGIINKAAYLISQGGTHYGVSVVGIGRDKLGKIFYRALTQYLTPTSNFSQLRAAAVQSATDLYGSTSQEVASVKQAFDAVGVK
The experiment in a line: cell-based or functional assay.

Experiment [2] has as its target T2, aureolysin isoform I, mature catalytic domain (A209–E509) (Staphylococcus aureus (strain V8-BC10), UniProt P81177 209-509).
T2 sequence (looked up): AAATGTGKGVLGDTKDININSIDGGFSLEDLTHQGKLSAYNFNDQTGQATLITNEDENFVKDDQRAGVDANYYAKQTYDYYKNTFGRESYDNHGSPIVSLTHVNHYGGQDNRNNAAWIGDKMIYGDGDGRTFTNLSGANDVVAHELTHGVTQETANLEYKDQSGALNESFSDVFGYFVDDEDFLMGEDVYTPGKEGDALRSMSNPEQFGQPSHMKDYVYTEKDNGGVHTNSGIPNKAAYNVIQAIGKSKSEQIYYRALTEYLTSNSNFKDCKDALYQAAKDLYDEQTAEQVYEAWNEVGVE
The experiment in a line: enzyme inhibition assay.

Changes are numbered by the printed parent chain. In names and notes the source's numbering stands.

What is called Ki is the equilibrium dissociation constant of an inhibitor or competing ligand from its target. Low values mean tighter binding, high ones weaker binding.

B1: R58E-IMPI (natural protein, Galleria mellonella)
chain: GMSIVLICNGGHEYYECGGACDNVCADLHIQNKTNCPIINIECNDKCYCEDGYARDVNGKCIPIKDCPKIRS
As to B1, the “inhibition of thermolysin, against the wild type” value in experiment [1] is around 200 fold.

B2: I57F-IMPI (natural protein, Galleria mellonella)
chain: B1 chain with I41F, E42R
B2: the Ki in experiment [2] stood at 346 nM.
